We go through one substance from patent publication US20240360201A1.

Usually Kd stands for the free concentration of one partner at which half of the binding sites on the other are occupied at equilibrium, for simple one-to-one binding. High values mean a looser complex, low ones a tighter complex.

The target in assay [1] is FcγRIIIA-F176-Sino (human) (UniProt P08637). Briefly: SPR Biacore T200; binder captured on protein A chip, Fc receptor as analyte.
The target of the next assay is FcγRIIB-Acro (human) (UniProt P31994). Briefly: SPR (Biacore T200), antibody captured on protein A sensor chip, Fc receptor as analyte; analyte range 3200nm-25nm. In general terms: SPR reads the build-up and loss of mass on a sensor chip optically.

Consider PDL1-avelumab (antibody), for which the values for the equilibrium dissociation constant (Kd) (in assay [1]; in the assay with FcγRIIB-Acro (human)) were 563 nM and 3330 nM, respectively.
